Measured values reported in article PMC3270550.

Molecular target: HIV-1 envelope glycoprotein gp120 (UniProt P04578)
Test: binding assay (method not named in legend)
Details: read off a plot; for other: relative affinity (hCD4-M = 1): parent: est. 0.63

hCD4-M, human CD4 mimetic peptide (residues 22-64), N-terminal Cys form F43A; R58A; R59A
ratio to parent (parent: 1): 0.24

mCD4-M, murine CD4 mimetic peptide (residues 22-66) I23C; E65C
other: relative affinity (hCD4-M = 1): 4

mCD4-M, murine CD4 mimetic peptide (residues 22-66) V44A; K60A; K61A
other: relative affinity (hCD4-M = 1): 0.14
